In patent US20210369776A1 (published 2021):

Experiments:
[1] = target: T1, EBV LMP2 (latent membrane protein 2) peptide on HLA-A*02:01 (human); test: killing
T1 peptide: LLWTLVVLL

[2] = target: T1, EBV LMP2 (latent membrane protein 2) …; test: cytokine release

B1: L201 TCR (TCR, V domains shown)
Valpha: DQQVKQNSPSLSVQEGRISILNCDYTNSMFDYFLWYKKYPAEGPTFLISISSIKDKNEDGRFTVFLNKSAKHLSLHIVPSQPGDSAVYFCAAPPPSGNQFYFGTGTSLTVIP
Vbeta: DVKVTQSSRYLVKRTGEKVFLECVQDMDHENMFWYRQDPGLGLRLIYFSYDVKMKEKGDIPEGYSVSREKKERFSLILESASTNQTSMYLCASSTRLAGAQRDTQYFGPGTRLTVL
B1: recognises [1].

B2: L203 TCR (TCR, V domains shown)
Valpha: DQQVKQNSPSLSVQEGRISILNCDYTNSMFDYFLWYKKYPAEGPTFLISISSIKDKNEDGRFTVFLNKSAKHLSLHIVPSQPGDSAVYFCAAKLPQAAGNKLTFGGGTRVLVKP
Vbeta: MVIQNPRYQVTQFGKPVTLSCSQTLNHNVMYWYQQKSSQAPKLLFHYYDKDFNNEADTPDNFQSRRPNTSFCFLDIRSPGLGDAAMYLCATSSSIAGDTRNNEQFFGPGTRLTVL
B2: recognises [2].

B3: L202 TCR (TCR, V domains shown)
Valpha: EDVEQSLFLSVREGDSSVINCTYTDSSSTYLYWYKQEPGAGLQLLTYIFSNMDMKQDQRLTVLLNKKDKHLSLRIADTQTGDSAIYFCAESIPSGYNKLIFGAGTRLAVHP
Vbeta: GVAQSPRYKIIEKRQSVAFWCNPISGHATLYWYQQILGQGPKLLIQFQNNGVVDDSQLPKDRFSAERLKGVDSTLKIQPAKLEDSAVYLCASSLGLAGEDTQYFGPGTRLTVL
B3: recognises [1].
